Assay in all cases: cell-based or functional assay
For one assay, the target named is IL2Rαβγ on CTLL2 cells.
Assay [1] has as its target IL-2Rβ and common γ chain on 32Dβ cells.
A further assay addresses IL-21R on B9 cells.

Chain of IL2Rαβγ on CTLL2 cells (P01590 22-268, chain 1 of 3): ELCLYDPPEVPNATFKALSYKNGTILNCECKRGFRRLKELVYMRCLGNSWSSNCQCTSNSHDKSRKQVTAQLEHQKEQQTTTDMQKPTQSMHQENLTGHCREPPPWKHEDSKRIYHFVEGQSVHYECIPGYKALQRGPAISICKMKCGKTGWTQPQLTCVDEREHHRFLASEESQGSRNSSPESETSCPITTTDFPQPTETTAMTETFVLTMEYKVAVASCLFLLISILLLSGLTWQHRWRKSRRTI
Chain of IL2Rαβγ on CTLL2 cells (P16297 27-539, chain 2 of 3, further chain): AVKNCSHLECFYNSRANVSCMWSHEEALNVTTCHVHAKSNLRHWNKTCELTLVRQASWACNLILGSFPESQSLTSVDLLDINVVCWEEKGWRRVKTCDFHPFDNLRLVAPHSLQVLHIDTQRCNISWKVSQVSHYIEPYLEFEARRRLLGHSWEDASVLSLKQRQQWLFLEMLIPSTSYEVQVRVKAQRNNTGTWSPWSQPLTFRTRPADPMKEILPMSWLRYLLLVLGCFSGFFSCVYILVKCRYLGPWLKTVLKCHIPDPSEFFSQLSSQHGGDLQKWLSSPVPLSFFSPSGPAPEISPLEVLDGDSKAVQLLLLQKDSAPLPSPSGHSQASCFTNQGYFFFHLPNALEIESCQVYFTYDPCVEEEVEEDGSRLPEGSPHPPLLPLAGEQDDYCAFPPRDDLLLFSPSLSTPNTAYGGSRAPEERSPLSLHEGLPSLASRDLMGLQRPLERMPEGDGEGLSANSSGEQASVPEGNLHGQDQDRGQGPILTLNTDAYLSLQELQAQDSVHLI
Chain of IL2Rαβγ on CTLL2 cells (P34902 23-369, chain 3 of 3, further chain): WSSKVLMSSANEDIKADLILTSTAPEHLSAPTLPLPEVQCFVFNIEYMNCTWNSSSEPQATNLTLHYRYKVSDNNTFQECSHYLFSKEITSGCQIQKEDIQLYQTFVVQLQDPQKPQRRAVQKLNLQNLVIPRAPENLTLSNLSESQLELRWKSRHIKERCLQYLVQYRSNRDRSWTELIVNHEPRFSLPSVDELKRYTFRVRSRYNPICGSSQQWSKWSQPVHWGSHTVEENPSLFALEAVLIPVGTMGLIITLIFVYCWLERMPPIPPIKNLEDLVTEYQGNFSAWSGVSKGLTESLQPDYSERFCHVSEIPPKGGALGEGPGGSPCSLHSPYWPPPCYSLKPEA

As for “recombinant IL-2 (from UniProt P60568 21-153) (ligand)”, the EC50, CTLL-2 cell proliferation (WST1) in the assay with IL2Rαβγ on CTLL2 cells is 0.548 nM. The same substance gave an EC50, 32Dβ cell proliferation (WST1) in assay [1] of 0.14 nM.

“recombinant IL-21 (from UniProt Q9HBE4 32-162) (ligand)” had an EC50, B9 cell proliferation (WST1) in the assay with IL-21R on B9 cells of 72.5 nM.

The values are drawn from patent US20250011380A1.
